# Experimental data reported in patent US20130184211A1 (NEW YORK UNIVERSITY, published 2013).
# T1: 1:1 binary complex of the ectodomains of FGFR1c and Klotho (human; murine, UniProt O35082 35-982)
# T1 construct: range 35-982; also called FGFR1c-Klotho complex; binary FGFR1c-Klotho complex; not shown: C-terminal FLAG tag
# T1 sequence 1: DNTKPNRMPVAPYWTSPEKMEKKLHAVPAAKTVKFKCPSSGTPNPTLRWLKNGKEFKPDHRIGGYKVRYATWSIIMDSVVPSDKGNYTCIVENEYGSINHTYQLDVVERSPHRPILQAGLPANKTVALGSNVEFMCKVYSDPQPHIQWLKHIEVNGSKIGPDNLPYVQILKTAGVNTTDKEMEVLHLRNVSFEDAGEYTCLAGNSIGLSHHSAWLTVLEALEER
# T1 sequence 2: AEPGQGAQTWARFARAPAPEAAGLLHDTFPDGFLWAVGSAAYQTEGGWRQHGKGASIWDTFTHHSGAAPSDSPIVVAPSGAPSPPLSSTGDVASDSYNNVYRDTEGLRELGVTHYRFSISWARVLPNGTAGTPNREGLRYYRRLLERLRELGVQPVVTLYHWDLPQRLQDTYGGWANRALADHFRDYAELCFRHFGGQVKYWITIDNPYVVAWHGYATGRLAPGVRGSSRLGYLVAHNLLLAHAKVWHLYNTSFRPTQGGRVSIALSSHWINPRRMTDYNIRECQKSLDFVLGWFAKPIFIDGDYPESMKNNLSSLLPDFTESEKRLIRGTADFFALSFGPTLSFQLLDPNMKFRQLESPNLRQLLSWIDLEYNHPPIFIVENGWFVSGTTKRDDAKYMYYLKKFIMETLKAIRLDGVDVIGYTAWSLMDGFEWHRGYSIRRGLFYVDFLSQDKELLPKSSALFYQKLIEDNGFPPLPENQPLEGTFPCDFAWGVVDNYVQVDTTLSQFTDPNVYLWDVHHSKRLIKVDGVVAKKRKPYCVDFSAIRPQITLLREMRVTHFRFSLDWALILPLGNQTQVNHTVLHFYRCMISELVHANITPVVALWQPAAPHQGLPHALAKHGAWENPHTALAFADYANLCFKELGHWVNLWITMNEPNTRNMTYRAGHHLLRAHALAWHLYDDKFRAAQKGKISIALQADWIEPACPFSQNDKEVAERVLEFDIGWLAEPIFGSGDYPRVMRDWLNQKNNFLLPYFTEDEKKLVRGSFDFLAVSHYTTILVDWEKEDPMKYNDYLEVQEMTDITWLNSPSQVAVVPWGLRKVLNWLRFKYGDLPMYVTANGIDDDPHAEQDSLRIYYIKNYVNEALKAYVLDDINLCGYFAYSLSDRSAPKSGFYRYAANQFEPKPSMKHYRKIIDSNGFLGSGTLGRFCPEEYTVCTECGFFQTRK
# Target: T1, 1:1 binary complex of the ectodomains …
# Experiment: SPR competition dose-response: FGF23^180-251 mixed with a fixed concentration of FGFR1c-Klotho, immobilized FGF23^28-251 as competitor; averaged data of two to three experiments
# Method: Increasing concentrations of FGF23²⁸⁻²⁵¹ (0-50 nM) were mixed with a fixed concentration of 1:1 complex of the ectodomains of FGFR1c and Klotho (15 nM and 20 nM, respectively) in HBS-EP buffer, and the mixtures were passed over the FGF23 chip. In the other—reverse—assay, FGF23¹⁸⁰⁻²⁵¹ was immobilized on a chip (˜48.4 fmole/mm² of flow channel). Increasing concentrations of FGF23²⁸⁻²⁵¹ (0-50 nM) were mixed with a fixed concentration of 1:1 complex of the ectodomains of FGFR1c and Klotho (20 nM) in HBS-EP buffer, and the mixtures were passed over the chip. As a control, competition of FGF23 C-terminal tail peptide in solution with immobilized FGF23 C-terminal tail peptide for binding to the binary FGFR1c-Klotho complex was studied. Increasing concentrations of FGF23¹⁸⁰⁻²⁵¹ (0-400 nM) were mixed with a fixed concentration of 1:1 complex of the ectodomains of FGFR1c and Klotho (20 nM) in HBS-EP buffer, and the mixtures were passed over the FGF23¹⁸⁰⁻²⁵¹ chip.
# To fully nail down that the C-terminal tail of FGF23 mediates FGF23 binding to the binary FGFR1c-Klotho complex, a fixed concentration of FGFR1c-Klotho was mixed with increasing concentrations of FGF23¹⁸⁰⁻²⁵¹, and the mixtures were passed over the FGF23 chip. Mixtures of FGF23²⁸⁻²⁵¹ with FGFR1c-Klotho were used as a control. […]
binder,measurement,value
"N-terminally hexahistidine-tagged 72-amino acid C-terminal tail of human FGF23 (S180 to I251), FGF23^180-251 (Expressed in E. coli; also called FGF23 C-terminal tail peptide; C-terminal tail of FGF23; not shown: N-terminal hexahistidine tag (six His)) peptide: SAEDDSERDPLNVLKPRARMTPAPASCSQELPSAEDNSPMASDPLGVVRGGRVNTHAGGTGPEGCRPFAKFI",IC50 (read off the curve),~50 nM
